Consider 8 molecules from patent US20040038876A1 (published 2004).

The labels stand for the following.
B1: mutant 44 (Shh C1II/A169C + E113C), 5 K PEG (ligand)
chain: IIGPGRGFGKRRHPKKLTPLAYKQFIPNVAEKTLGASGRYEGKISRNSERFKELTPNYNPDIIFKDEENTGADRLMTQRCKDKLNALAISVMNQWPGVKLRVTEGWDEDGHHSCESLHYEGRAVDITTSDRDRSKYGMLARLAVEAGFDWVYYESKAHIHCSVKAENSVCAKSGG
modifications: 5 K PEG maleimide on thiol of Cys113, Cys169
B2: mutant 45 (Shh C1II/A169C + G146C), 5 K PEG (ligand)
chain: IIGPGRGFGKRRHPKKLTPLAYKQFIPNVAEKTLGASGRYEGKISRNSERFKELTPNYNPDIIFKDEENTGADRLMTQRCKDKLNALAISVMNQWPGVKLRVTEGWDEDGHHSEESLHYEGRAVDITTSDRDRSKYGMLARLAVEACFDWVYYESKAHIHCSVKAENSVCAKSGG
modifications: 5 K PEG maleimide on thiol of Cys146, Cys169
B3: mutant 44 (Shh C1II/A169C + E113C), unmodified (ligand)
chain: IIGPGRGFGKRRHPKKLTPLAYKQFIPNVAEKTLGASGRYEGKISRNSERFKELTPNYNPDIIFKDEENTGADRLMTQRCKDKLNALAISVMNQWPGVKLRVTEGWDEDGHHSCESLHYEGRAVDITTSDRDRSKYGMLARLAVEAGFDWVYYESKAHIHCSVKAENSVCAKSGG
B4: mutant 45 (Shh C1II/A169C + G146C), unmodified (ligand)
chain: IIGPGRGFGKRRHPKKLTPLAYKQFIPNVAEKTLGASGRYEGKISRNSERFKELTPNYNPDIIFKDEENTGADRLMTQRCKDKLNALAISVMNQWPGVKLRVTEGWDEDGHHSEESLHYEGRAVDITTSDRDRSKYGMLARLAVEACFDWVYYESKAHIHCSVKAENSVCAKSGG
B5: mutant 25 (Shh C1II/A169C + S133C), Napth-modified (ligand)
chain: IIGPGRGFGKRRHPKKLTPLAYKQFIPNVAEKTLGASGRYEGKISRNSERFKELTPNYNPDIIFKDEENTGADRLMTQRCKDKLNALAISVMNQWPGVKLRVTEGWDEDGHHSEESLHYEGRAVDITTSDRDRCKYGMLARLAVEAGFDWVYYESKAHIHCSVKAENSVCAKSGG
modifications: N-(1-naphthyl) maleimide on thiol of Cys133, Cys169
B6: mutant 25 (Shh C1II/A169C + S133C), Pyrene-modified (ligand)
chain: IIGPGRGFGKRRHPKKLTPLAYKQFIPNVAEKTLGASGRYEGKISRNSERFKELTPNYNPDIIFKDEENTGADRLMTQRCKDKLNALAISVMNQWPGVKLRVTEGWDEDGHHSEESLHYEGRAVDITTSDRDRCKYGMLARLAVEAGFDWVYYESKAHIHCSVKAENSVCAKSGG
modifications: N-(1-pyrenyl) maleimide on thiol of Cys133, Cys169
B7: mutant 25 (Shh C1II/A169C + S133C), 5 K PEG (ligand)
chain: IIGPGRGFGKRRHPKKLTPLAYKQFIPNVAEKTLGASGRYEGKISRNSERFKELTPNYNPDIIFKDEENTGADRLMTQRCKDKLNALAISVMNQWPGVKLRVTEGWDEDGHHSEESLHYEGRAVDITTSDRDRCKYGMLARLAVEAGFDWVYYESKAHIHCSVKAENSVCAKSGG
modifications: 5 K PEG maleimide on thiol of Cys133, Cys169
B8: mutant 25 (Shh C1II/A169C + S133C), 20 K PEG (ligand)
chain: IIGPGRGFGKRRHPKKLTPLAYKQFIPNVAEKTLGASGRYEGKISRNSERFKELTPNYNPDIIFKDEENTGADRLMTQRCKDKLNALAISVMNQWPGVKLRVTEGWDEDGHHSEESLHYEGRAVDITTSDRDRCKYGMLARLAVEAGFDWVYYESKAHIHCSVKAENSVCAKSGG
modifications: 20 K PEG maleimide on thiol of Cys133, Cys169

The first experiment addresses T1, Shh receptor molecules on C3H10T1/2 cells (UniProt Q61115 1-1434).
T1 sequence (looked up): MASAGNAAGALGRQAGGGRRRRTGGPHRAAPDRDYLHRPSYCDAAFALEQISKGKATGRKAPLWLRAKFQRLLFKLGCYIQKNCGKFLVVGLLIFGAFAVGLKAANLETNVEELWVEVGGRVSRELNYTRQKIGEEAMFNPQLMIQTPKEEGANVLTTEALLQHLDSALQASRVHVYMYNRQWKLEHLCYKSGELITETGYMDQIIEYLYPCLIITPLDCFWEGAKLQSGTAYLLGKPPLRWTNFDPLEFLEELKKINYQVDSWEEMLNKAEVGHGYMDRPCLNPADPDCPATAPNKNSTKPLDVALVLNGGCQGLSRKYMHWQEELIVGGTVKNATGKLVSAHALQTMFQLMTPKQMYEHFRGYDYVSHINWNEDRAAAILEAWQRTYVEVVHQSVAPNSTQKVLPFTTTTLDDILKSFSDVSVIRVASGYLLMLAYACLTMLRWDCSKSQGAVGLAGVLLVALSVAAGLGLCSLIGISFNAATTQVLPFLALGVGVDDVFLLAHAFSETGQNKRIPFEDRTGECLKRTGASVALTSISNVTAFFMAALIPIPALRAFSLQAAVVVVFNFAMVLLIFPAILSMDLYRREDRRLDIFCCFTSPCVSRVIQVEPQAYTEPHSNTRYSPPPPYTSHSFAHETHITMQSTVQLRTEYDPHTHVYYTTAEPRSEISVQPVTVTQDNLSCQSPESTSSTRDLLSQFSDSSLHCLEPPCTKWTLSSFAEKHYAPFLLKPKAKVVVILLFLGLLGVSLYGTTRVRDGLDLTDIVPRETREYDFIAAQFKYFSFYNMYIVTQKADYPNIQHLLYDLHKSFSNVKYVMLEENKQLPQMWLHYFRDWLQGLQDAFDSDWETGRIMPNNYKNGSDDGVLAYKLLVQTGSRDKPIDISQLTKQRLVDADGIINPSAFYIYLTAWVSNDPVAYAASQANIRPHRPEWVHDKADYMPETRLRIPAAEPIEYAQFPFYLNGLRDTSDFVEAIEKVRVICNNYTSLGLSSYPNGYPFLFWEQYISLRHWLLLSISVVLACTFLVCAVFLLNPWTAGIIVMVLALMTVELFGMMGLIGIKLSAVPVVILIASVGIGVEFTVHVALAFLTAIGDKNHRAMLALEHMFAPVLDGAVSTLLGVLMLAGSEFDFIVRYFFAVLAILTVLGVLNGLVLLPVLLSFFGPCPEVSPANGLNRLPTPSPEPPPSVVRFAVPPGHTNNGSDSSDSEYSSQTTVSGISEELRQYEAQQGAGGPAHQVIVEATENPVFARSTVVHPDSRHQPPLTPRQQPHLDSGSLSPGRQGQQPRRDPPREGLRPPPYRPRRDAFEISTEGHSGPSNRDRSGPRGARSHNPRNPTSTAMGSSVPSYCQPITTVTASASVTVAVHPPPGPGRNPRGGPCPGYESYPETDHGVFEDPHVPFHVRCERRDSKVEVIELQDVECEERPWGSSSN
The experiment in a line: cell-based or functional assay.
As for B1, the “IC50 in C3H10T1/2 assay” value worked out at 0.6 µg/mL. As to B2, the “IC50 in C3H10T1/2 assay” value came out at 0.5 µg/mL. Take B3: the “IC50 in C3H10T1/2 assay” value was determined as 1 µg/mL. With B4, the “IC50 in C3H10T1/2 assay” value worked out at 0.3 µg/mL.

The next experiment concerns the target T1, Shh receptor molecules on C3H10T1/2 …. The experiment in a line: cell-based or functional assay. This is another data set of the same source.
As to B5, the “Potency (IC50) in C3H10T1/2 assay (alkaline phosphatase induction)” value (“Potency (IC50) in C3H10T1/2 assay” below) turned out to be 0.6 µg/mL. B6: the “Potency (IC50) in C3H10T1/2 assay” value is 3 µg/mL. In the case of B7, the “Potency (IC50) in C3H10T1/2 assay” value was 2 µg/mL.

B8: the “Potency (IC50) in C3H10T1/2 assay” value is 2 µg/mL.
